Test results reported in US20230355534A1, “METHOD TO ENCAPSULATE AN AQUEOUS SOLUTION COMPRISING A COMPOUND OF INTEREST IN A MATRIX” (SECOYA TECHNOLOGIES, priority 2020, published 2023).

What was measured:
[1] = Encapsulation yield by spectrophotometry after dissolution of the particles; type: physicochemical; conditions: Example 1 particles; percentage of compound initially used that is detected in the particles; upper limit of detection 98%
Description: A second evaluation method measures the encapsulation yield. The encapsulation yield is measured directly on the particles, and represents the percentage of the compound of interest initially used in the encapsulation method that is detected in the particles. The measurement is performed by spectrophotometry by means of a Thermoscientific Genesys 180 device after dissolution of the particles. Based on the detection limits of the device, the upper limit of encapsulation yield is noticed to be 98%, meaning that approximately 2% is not detected. This also means that an encapsulation yield of 98% indicates a very good encapsulation of the compound of interest.
For the measurement of the encapsulation yield, the protein pork haemoglobin was used as compound of interest for encapsulation. The encapsulation yield for pork haemoglobin was up to 98%, indicating a very high encapsulation yield.

[2] = Encapsulation efficiency by spectrophotometry of the second aqueous solution after separation of the particles; type: physicochemical; conditions: Example 1 particles (Eudragit S100 matrix, oleic acid shell); typical detection limit 2 w %
Description: The encapsulation efficiency has been measured through spectrophotometry measurement by means of a Thermoscientific Genesys 180 device. The encapsulation efficiency is measured by measuring the percentage of compound of interest in the second aqueous solution after separation of the obtained particles. The percentage is a weight percentage, i.e. the mass of compound in relation to the total mass of the second aqueous solution. Given the high mass of second aqueous solution in relation to the mass of the compound of interest, only significant amounts of compound of interest are detected. A typical detection limit is 2 w %. If no compound of interest is detected in the second aqueous solution after separation of the obtained particles, it means that no to very low quantities of compound of interest are present in the second aqueous solution, and that the encapsulation can be considered to have been efficient. Detection of the compound of interest indicates less efficient encapsulation. The larger the amount of compound of interest detected, the less efficient was the encapsulation.
For the measurement of the encapsulation efficiency, the protein pork haemoglobin was used as compound of interest for encapsulation.

For pork haemoglobin, the encapsulation yield [1] was “up to 98%” and the “encapsulation efficiency: compound of interest detected in the second aqueous solution after separation of the obtained particles” value [2] was “No traces”.
